This is an account of results in patent publication US20140356358A1 (Amgen, published 2014).

Assay [1] deals with T1, human neonatal Fc receptor (hFcRn) (human, UniProt P55899 24-290; P61769 21-119).
T1 construct: Biotinylated in the ELISA, Octet and yeast assays; also called human FcRn; huFcRn
In words: phage ELISA pH 7.4. Here is the method: (§1) Approximately 100 μL of biotinylated human FcRn at 2 μg/mL was added to the wells of MAXISORP™ plates coated with 10 μg/mL streptavidin. After washing with PBS plus 0.05% Tween 20 (PBST) five times, phage from the overnight cultures in MES buffer at pH 6.0 or pH 7.4 were added to the plates and incubated at room temperature for 1 hr. A horseradish peroxidase (HRP)-conjugated anti-M13 antibody was used to detect the binding phage, and the plates were scored by a microtiter plate reader using a wavelength in the visible range.
(§2) Binding was assessed by a quantitative enzyme-linked immunoadsorbent assay (ELISA). The ELISA scores reflect binding affinity, with higher scores meaning higher affinity. Typically, scores higher than about 3˜5 indicate binding above background. For library L5, the insertions are between the N169 and G170 according to the numbering in FIG. 2. For libraries 6A and 6B, the insertions are between L143 and T144 according to the numbering in FIG. 2.
(In general: ELISA stands for enzyme-linked immunosorbent assay.)

The target of assay [2] is T1, human neonatal Fc receptor (hFcRn). The experiment in a line: phage ELISA pH 6. Here is the method:
as §1, §2
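Note: higher score means stronger binding and above about 3 to 5 exceeds background.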

T1 sequence (P55899 24-290 limits assumed, chain 1 of 2): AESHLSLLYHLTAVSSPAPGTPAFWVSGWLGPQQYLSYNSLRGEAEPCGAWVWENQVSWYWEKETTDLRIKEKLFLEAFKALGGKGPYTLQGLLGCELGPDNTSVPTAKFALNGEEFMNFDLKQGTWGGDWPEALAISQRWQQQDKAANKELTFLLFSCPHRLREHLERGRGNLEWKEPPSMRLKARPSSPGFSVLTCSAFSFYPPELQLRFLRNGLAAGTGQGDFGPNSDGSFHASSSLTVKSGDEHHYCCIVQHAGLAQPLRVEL
T1 sequence (P61769 21-119 limits assumed, chain 2 of 2): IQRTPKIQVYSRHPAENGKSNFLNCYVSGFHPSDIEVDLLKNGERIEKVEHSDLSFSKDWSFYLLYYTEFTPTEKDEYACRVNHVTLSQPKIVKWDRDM

B1: L5 isolate with insertion SEQ ID NO: 433 (other)
chain: EPKSCDKTHTCPPCPAPELLGGPSVFLFPPKPKDTLMISRTPEVTCVVVDVSHEDPEVKFNWYVDGVEVHNAKTKPREEQYNSTYRVVSVLTVLHQDWLNGKEYKCKVSNKALPAPIEKTISKAKGQPREPQVYTLPPSRDELTKNQVSLTCLVKGFYPSDIAVEWESNGGCEIPHSFCGGGQPENNYKTTPPVLDSDGSFFLYSKLTVDKSRWQQGNVFSCSVMHEALHNHYTQKSLSLSPGK
For B1, the ELISA score in assay [1] came out at 0.7; in assay [2] it was 57.2.

B2: L5 isolate with insertion SEQ ID NO: 434 (other)
chain: EPKSCDKTHTCPPCPAPELLGGPSVFLFPPKPKDTLMISRTPEVTCVVVDVSHEDPEVKFNWYVDGVEVHNAKTKPREEQYNSTYRVVSVLTVLHQDWLNGKEYKCKVSNKALPAPIEKTISKAKGQPREPQVYTLPPSRDELTKNQVSLTCLVKGFYPSDIAVEWESNGGCMPYEMHCGGGQPENNYKTTPPVLDSDGSFFLYSKLTVDKSRWQQGNVFSCSVMHEALHNHYTQKSLSLSPGK
Consider B2, for which the ELISA score in assay [1] was determined as 0.4; in assay [2], 56.7.

B3: L5 isolate with insertion SEQ ID NO: 447 (other)
chain: EPKSCDKTHTCPPCPAPELLGGPSVFLFPPKPKDTLMISRTPEVTCVVVDVSHEDPEVKFNWYVDGVEVHNAKTKPREEQYNSTYRVVSVLTVLHQDWLNGKEYKCKVSNKALPAPIEKTISKAKGQPREPQVYTLPPSRDELTKNQVSLTCLVKGFYPSDIAVEWESNGGCMFETKWCGGGQPENNYKTTPPVLDSDGSFFLYSKLTVDKSRWQQGNVFSCSVMHEALHNHYTQKSLSLSPGK
For the molecule B3, the ELISA score was found to be 1.2 in assay [1] and 52.4 in assay [2].

B4: L5 isolate with insertion SEQ ID NO: 441 (other)
chain: EPKSCDKTHTCPPCPAPELLGGPSVFLFPPKPKDTLMISRTPEVTCVVVDVSHEDPEVKFNWYVDGVEVHNAKTKPREEQYNSTYRVVSVLTVLHQDWLNGKEYKCKVSNKALPAPIEKTISKAKGQPREPQVYTLPPSRDELTKNQVSLTCLVKGFYPSDIAVEWESNGGCEATMTWCGGGQPENNYKTTPPVLDSDGSFFLYSKLTVDKSRWQQGNVFSCSVMHEALHNHYTQKSLSLSPGK
As for B4, the results for the ELISA score in assay [1] and in assay [2] were 0.6 and 54.7, respectively.

B5: L5 isolate with insertion SEQ ID NO: 446 (other)
chain: EPKSCDKTHTCPPCPAPELLGGPSVFLFPPKPKDTLMISRTPEVTCVVVDVSHEDPEVKFNWYVDGVEVHNAKTKPREEQYNSTYRVVSVLTVLHQDWLNGKEYKCKVSNKALPAPIEKTISKAKGQPREPQVYTLPPSRDELTKNQVSLTCLVKGFYPSDIAVEWESNGGCMHNEEFCGGGQPENNYKTTPPVLDSDGSFFLYSKLTVDKSRWQQGNVFSCSVMHEALHNHYTQKSLSLSPGK
As to B5, the ELISA score in assay [1] amounted to 0.4; in assay [2], 53.2.

B6: L5 isolate with insertion SEQ ID NO: 445 (other)
chain: EPKSCDKTHTCPPCPAPELLGGPSVFLFPPKPKDTLMISRTPEVTCVVVDVSHEDPEVKFNWYVDGVEVHNAKTKPREEQYNSTYRVVSVLTVLHQDWLNGKEYKCKVSNKALPAPIEKTISKAKGQPREPQVYTLPPSRDELTKNQVSLTCLVKGFYPSDIAVEWESNGGCPLVRADCGGGQPENNYKTTPPVLDSDGSFFLYSKLTVDKSRWQQGNVFSCSVMHEALHNHYTQKSLSLSPGK
B6: the values for the ELISA score in assay [1] and in assay [2] were 0.4 and 53.2, respectively.

B7: L5 isolate with insertion SEQ ID NO: 444 (other)
chain: EPKSCDKTHTCPPCPAPELLGGPSVFLFPPKPKDTLMISRTPEVTCVVVDVSHEDPEVKFNWYVDGVEVHNAKTKPREEQYNSTYRVVSVLTVLHQDWLNGKEYKCKVSNKALPAPIEKTISKAKGQPREPQVYTLPPSRDELTKNQVSLTCLVKGFYPSDIAVEWESNGGCHAPQWECGGGQPENNYKTTPPVLDSDGSFFLYSKLTVDKSRWQQGNVFSCSVMHEALHNHYTQKSLSLSPGK
With B7, the values for the ELISA score in assay [1] and in assay [2] were 0.3 and 53.2, respectively.

B8: L5 isolate with insertion SEQ ID NO: 436 (other)
chain: EPKSCDKTHTCPPCPAPELLGGPSVFLFPPKPKDTLMISRTPEVTCVVVDVSHEDPEVKFNWYVDGVEVHNAKTKPREEQYNSTYRVVSVLTVLHQDWLNGKEYKCKVSNKALPAPIEKTISKAKGQPREPQVYTLPPSRDELTKNQVSLTCLVKGFYPSDIAVEWESNGGCAERQYYCGGGQPENNYKTTPPVLDSDGSFFLYSKLTVDKSRWQQGNVFSCSVMHEALHNHYTQKSLSLSPGK
Take B8: the ELISA score in assay [1] is 1.4; in assay [2], 55.5.

B9: L5 isolate with insertion SEQ ID NO: 449 (other)
chain: EPKSCDKTHTCPPCPAPELLGGPSVFLFPPKPKDTLMISRTPEVTCVVVDVSHEDPEVKFNWYVDGVEVHNAKTKPREEQYNSTYRVVSVLTVLHQDWLNGKEYKCKVSNKALPAPIEKTISKAKGQPREPQVYTLPPSRDELTKNQVSLTCLVKGFYPSDIAVEWESNGGCLQNLYVCGGGQPENNYKTTPPVLDSDGSFFLYSKLTVDKSRWQQGNVFSCSVMHEALHNHYTQKSLSLSPGK
As for B9, the ELISA score in assay [1] is 0.4; in assay [2], 51.6.

B10: L5 isolate with insertion SEQ ID NO: 443 (other)
chain: EPKSCDKTHTCPPCPAPELLGGPSVFLFPPKPKDTLMISRTPEVTCVVVDVSHEDPEVKFNWYVDGVEVHNAKTKPREEQYNSTYRVVSVLTVLHQDWLNGKEYKCKVSNKALPAPIEKTISKAKGQPREPQVYTLPPSRDELTKNQVSLTCLVKGFYPSDIAVEWESNGGCSRVFKYCGGGQPENNYKTTPPVLDSDGSFFLYSKLTVDKSRWQQGNVFSCSVMHEALHNHYTQKSLSLSPGK
With B10, the ELISA score in assay [1] amounted to 0.7; in assay [2] it was 54.2.

B11: L5 isolate with insertion SEQ ID NO: 439 (other)
chain: EPKSCDKTHTCPPCPAPELLGGPSVFLFPPKPKDTLMISRTPEVTCVVVDVSHEDPEVKFNWYVDGVEVHNAKTKPREEQYNSTYRVVSVLTVLHQDWLNGKEYKCKVSNKALPAPIEKTISKAKGQPREPQVYTLPPSRDELTKNQVSLTCLVKGFYPSDIAVEWESNGGCHHKQDQCGGGQPENNYKTTPPVLDSDGSFFLYSKLTVDKSRWQQGNVFSCSVMHEALHNHYTQKSLSLSPGK
Turning to B11, the ELISA score is 0.6 in assay [1] and 54.9 in assay [2].

B12: L5 isolate with insertion SEQ ID NO: 451 (other)
chain: EPKSCDKTHTCPPCPAPELLGGPSVFLFPPKPKDTLMISRTPEVTCVVVDVSHEDPEVKFNWYVDGVEVHNAKTKPREEQYNSTYRVVSVLTVLHQDWLNGKEYKCKVSNKALPAPIEKTISKAKGQPREPQVYTLPPSRDELTKNQVSLTCLVKGFYPSDIAVEWESNGGCNLGHMPCGGGQPENNYKTTPPVLDSDGSFFLYSKLTVDKSRWQQGNVFSCSVMHEALHNHYTQKSLSLSPGK
Take B12: the figures for the ELISA score in assay [1] and in assay [2] were 0.4 and 51.1, respectively.

B13: L5 isolate with insertion SEQ ID NO: 450 (other)
chain: EPKSCDKTHTCPPCPAPELLGGPSVFLFPPKPKDTLMISRTPEVTCVVVDVSHEDPEVKFNWYVDGVEVHNAKTKPREEQYNSTYRVVSVLTVLHQDWLNGKEYKCKVSNKALPAPIEKTISKAKGQPREPQVYTLPPSRDELTKNQVSLTCLVKGFYPSDIAVEWESNGGCQTSMKNCGGGQPENNYKTTPPVLDSDGSFFLYSKLTVDKSRWQQGNVFSCSVMHEALHNHYTQKSLSLSPGK
On to B13, for which the ELISA score in assay [1] amounted to 0.2; in assay [2], 51.3.

B14: L5 isolate with insertion SEQ ID NO: 453 (other)
chain: EPKSCDKTHTCPPCPAPELLGGPSVFLFPPKPKDTLMISRTPEVTCVVVDVSHEDPEVKFNWYVDGVEVHNAKTKPREEQYNSTYRVVSVLTVLHQDWLNGKEYKCKVSNKALPAPIEKTISKAKGQPREPQVYTLPPSRDELTKNQVSLTCLVKGFYPSDIAVEWESNGGCVHNDKLCGGGQPENNYKTTPPVLDSDGSFFLYSKLTVDKSRWQQGNVFSCSVMHEALHNHYTQKSLSLSPGK
As for B14, the ELISA score in assay [1] worked out at 0.4; in assay [2], 50.3.

B15: L5 isolate with insertion SEQ ID NO: 438 (other)
chain: EPKSCDKTHTCPPCPAPELLGGPSVFLFPPKPKDTLMISRTPEVTCVVVDVSHEDPEVKFNWYVDGVEVHNAKTKPREEQYNSTYRVVSVLTVLHQDWLNGKEYKCKVSNKALPAPIEKTISKAKGQPREPQVYTLPPSRDELTKNQVSLTCLVKGFYPSDIAVEWESNGGCKSMISMCGGGQPENNYKTTPPVLDSDGSFFLYSKLTVDKSRWQQGNVFSCSVMHEALHNHYTQKSLSLSPGK
Regarding B15, the ELISA score in assay [1] came to 0.2; in assay [2] it was 55.2.

B16: L5 isolate with insertion SEQ ID NO: 452 (other)
chain: EPKSCDKTHTCPPCPAPELLGGPSVFLFPPKPKDTLMISRTPEVTCVVVDVSHEDPEVKFNWYVDGVEVHNAKTKPREEQYNSTYRVVSVLTVLHQDWLNGKEYKCKVSNKALPAPIEKTISKAKGQPREPQVYTLPPSRDELTKNQVSLTCLVKGFYPSDIAVEWESNGGCWMWAEECGGGQPENNYKTTPPVLDSDGSFFLYSKLTVDKSRWQQGNVFSCSVMHEALHNHYTQKSLSLSPGK
Regarding B16, the figures for the ELISA score in assay [1] and in assay [2] were 1 and 50.5, respectively.

B17: L5 isolate with insertion SEQ ID NO: 435 (other)
chain: EPKSCDKTHTCPPCPAPELLGGPSVFLFPPKPKDTLMISRTPEVTCVVVDVSHEDPEVKFNWYVDGVEVHNAKTKPREEQYNSTYRVVSVLTVLHQDWLNGKEYKCKVSNKALPAPIEKTISKAKGQPREPQVYTLPPSRDELTKNQVSLTCLVKGFYPSDIAVEWESNGGCKRENPYCGGGQPENNYKTTPPVLDSDGSFFLYSKLTVDKSRWQQGNVFSCSVMHEALHNHYTQKSLSLSPGK
As to B17, the values for the ELISA score in assay [1] and in assay [2] were 0.7 and 55.6, respectively.
